Source: paper doi:10.1101/2024.11.26.625467

Target: KS17 N2 NA (neuraminidase head of H3N2 A/Kansas/14/2017) (influenza A virus H3N2 A/Kansas/14/2017)
Test: cryo-EM structure

Substance: KS17 N2 NA (neuraminidase head of H3N2 A/Kansas/14/2017) (domain or fragment)
- stoichiometry N: 4
